Results: patent US8722052B2, “Vaccinia virus protein A46 peptide and use thereof” (priority 2008, dated 2014)

Assays:
[1] = biological target: T1, TLR2 (Homo sapiens, UniProt O60603); test: Pam3CysK4-induced TNFα in THP-1 cells, ELISA; assay type: cell-based; conditions: peptide 1, 5 or 10 μM
T1 construct: endogenous in cells; host or cells: PMA-differentiated THP-1
Description: FIGS. 9A and B are bar charts showing the effect of A464 on Pam3CysK4-induced TNFα in human THP-1 cells. Cells were seeded in 96 well plates (3×10^5 cells/ml) and differentiated with 200 nM PMA for 24 hours before treatment. A464 (SEQ ID NO. 20) was added to the cells at a concentration of 1, 5 or 10 μM 1 hour before stimulating with either 100 ng/ml (A) or 10 ng/ml Pam3CysK4 (B). Supernatants were collected 24 hours after stimulation and assayed for TNFα by ELISA. Cells from (B) were also assayed for viability by the MTT assay (C). No peptides were added to the control wells (black bars). Data is representative of at least three experiments each performed in triplicate and is expressed as mean±s.d;
Cytokine and chemokine production from cells or mouse serum was measured by ELISA using Duoset kits from R&D systems, according to the manufacturer's instructions.
In order to determine whether A464 (SEQ ID No. 20) was specific for TLR4, other TLR pathways were next assayed for sensitivity to A464 (SEQ ID No. 20). A scrambled version of A464 (SEQ ID No. 20) peptide was designed to use as a further control peptide, and this had the sequence: […] (ConA464, SEQ ID No. 32). The A464R (SEQ ID No. 20) and ConA464 (SEQ ID No. 32) peptides were assayed for inhibition of TLR2 signalling in THP-1 cells. […]

[2] = system: THP-1 cells; test: MTT cell viability assay, THP-1; assay type: cell-based, human; conditions: peptide 5 and 10 μM, 10 ng/ml LPS
Description: FIGS. 7A and B are bar charts showing the effect of A464 on TNFα production and cell viability of human THP-1 cells stimulated with LPS. Cells were seeded in 96 well plates (3×10^5 cells/ml) and differentiated with 200 nM PMA for 24 hours before treatment. A464 (SEQ ID NO. 20) was added to the cells at a concentration of 5 or 10 μM 1 hour before stimulating with 10 ng/ml LPS. Supernatants were collected 6 hours after stimulation and assayed for TNFα by ELISA (A) and cells were assayed for viability by the MTT assay (B.). No peptides were added to the control wells (black bars). Data is representative of at least three experiments each performed in triplicate and is expressed as mean±s.d;
FIGS. 9A and B are bar charts showing the effect of A464 on Pam3CysK4-induced TNFα in human THP-1 cells. Cells were seeded in 96 well plates (3×10^5 cells/ml) and differentiated with 200 nM PMA for 24 hours before treatment. […] Data is representative of at least three experiments each performed in triplicate and is expressed as mean±s.d;
Cell viability was measured by assessing mitochondrial function using an MTT (3-(4,5-Dimethylthiazol-2-yl)-2,5-diphenyltetrazolium bromide) assay. […] MTT was then removed and 200 μl per well of dimethyl sulphoxide (DMSO) was added and cells incubated for 20 min at 37° C. in the dark, prior to absorbance being read at 595 nm on a spectrophotometer.

[3] = system: cell viability; test: MTT cell viability assay, more detailed investigation of screening hits; assay type: cell-based; conditions: cell type not stated
Description: Cell viability was measured by assessing mitochondrial function using an MTT (3-(4,5-Dimethylthiazol-2-yl)-2,5-diphenyltetrazolium bromide) assay. Cells were seeded into 96 well plates and treated with peptides and agonists as described above in relation to the Figs. Wells containing medium only served as a blank control. To terminate treatment of cells, medium was removed and the cells were washed once with PBS. 200 μl per well of 1 mg/ml MTT in PBS was added directly to the cells and the plates were incubated at 37° C. for 14-16 hrs in the dark. MTT was then removed and 200 μl per well of dimethyl sulphoxide (DMSO) was added and cells incubated for 20 min at 37° C. in the dark, prior to absorbance being read at 595 nm on a spectrophotometer.

T1 sequence (O60603 21-784): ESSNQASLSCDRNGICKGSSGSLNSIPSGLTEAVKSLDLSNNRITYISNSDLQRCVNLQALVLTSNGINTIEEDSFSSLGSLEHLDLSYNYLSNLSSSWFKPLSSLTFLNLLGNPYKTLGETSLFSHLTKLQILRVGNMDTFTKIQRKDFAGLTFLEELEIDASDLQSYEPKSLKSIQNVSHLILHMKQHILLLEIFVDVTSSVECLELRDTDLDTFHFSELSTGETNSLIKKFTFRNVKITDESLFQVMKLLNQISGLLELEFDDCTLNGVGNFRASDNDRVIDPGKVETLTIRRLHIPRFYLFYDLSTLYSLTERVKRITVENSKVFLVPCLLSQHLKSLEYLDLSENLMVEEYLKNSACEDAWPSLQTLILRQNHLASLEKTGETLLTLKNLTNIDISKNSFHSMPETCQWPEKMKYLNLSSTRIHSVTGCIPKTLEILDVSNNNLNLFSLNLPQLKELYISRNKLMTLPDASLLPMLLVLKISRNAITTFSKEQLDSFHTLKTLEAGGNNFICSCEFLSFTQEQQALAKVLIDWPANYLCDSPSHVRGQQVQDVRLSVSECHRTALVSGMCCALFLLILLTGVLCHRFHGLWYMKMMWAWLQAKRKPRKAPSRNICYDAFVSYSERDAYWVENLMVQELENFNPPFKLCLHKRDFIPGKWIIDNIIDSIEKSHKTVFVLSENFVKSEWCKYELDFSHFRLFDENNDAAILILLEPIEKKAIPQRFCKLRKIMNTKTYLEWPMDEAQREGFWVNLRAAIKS
T1 sequence (Q15399 25-786 partner): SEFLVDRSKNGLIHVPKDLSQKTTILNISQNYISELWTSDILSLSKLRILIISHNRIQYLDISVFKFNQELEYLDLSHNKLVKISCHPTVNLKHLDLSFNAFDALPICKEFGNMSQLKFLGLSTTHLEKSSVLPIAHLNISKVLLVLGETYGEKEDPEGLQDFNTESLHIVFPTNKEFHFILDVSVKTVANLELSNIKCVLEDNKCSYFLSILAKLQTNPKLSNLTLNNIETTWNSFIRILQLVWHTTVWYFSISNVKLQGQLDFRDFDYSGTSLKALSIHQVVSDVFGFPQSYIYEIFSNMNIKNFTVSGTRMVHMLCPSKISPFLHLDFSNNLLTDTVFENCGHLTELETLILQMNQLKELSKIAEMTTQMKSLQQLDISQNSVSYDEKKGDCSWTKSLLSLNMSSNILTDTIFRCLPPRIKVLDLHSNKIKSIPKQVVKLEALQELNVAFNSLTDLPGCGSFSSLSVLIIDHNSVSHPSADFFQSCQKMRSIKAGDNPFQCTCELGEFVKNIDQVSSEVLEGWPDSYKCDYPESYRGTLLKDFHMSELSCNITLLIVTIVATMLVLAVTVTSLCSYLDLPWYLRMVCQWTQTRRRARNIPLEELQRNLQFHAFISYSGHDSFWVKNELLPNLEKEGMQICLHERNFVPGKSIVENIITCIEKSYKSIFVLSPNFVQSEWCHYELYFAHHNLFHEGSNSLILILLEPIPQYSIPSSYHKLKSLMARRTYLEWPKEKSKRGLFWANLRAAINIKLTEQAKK

KYSFKLILAEYRRRRRRRRR [Peptide A464]
inhibition of Pam3CysK4-induced hTNFα secretion ([1]; 10 ng/ml Pam3CysK4, 24 h): slightly heightened | inhibition of Pam3CysK4-induced hTNFα secretion ([1]; 100 ng/ml Pam3CysK4, 24 h): only very minor inhibitory effects | cytotoxicity (MTT) [2]: no cytotoxicity | cell viability (MTT assay) [3]: less toxic
